The values that follow come from patent US20110256132A1 (published 2011).

Like-named read-outs stand apart in the source and are kept apart here.

Experiment [1] has as its target T1, mature myostatin (recombinant, dimeric) (mouse polyprotein used for in-house …, UniProt O08689 268-376).
T1 construct: also called GDF-8; recombinant myostatin
T1 sequence: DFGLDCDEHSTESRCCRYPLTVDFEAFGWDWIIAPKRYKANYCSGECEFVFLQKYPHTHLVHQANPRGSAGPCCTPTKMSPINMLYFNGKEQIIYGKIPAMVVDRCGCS
Briefly: BIAcore, low density myostatin surface, antibody analyte, 1:1 model. On the procedure: (§1) Purified H0L0, H1L2 and H2L2 bound recombinant myostatin by BIAcore™ Recombinant myostatin was immobilised at three different densities (low, medium and high, to give R-max values of approximately 35, 120 and 350 RU's respectively) onto a BIAcore™ chip. Antibodies were passed over at 256, 64, 16, 4 and 1 nM. 0 nM antibody was used for double referencing and data was fitted to the 1:1 model.

Experiment [2] addresses T1, mature myostatin (recombinant, dimeric). Briefly: myostatin binding ELISA with purified antibody, 10 ng/well recombinant myostatin coated, anti-human kappa HRP, A490 (Examples 4.1, 4.2); the text says the CHOK1 material was hard to quantify. The method, then: (§2) The myostatin binding ELISA was carried out approximately according to this protocol. A 96-well ELISA plate was coated at 4° C. overnight with 10 ng/well recombinant myostatin. This plate was then washed 3-times in wash buffer (PBS, 0.1% Tween-20). The wells were blocked for 1 hour at room temperature with block solution (PBS, 0.1% Tween-20+1% bovine serum albumin [BSA]), before washing 3-times in wash buffer. Antibodies were then titrated out to a suitable concentration range (approximately 100 to 0.001 μg/ml), added to the plate and incubated for 1 hour at room temperature. The plate was then washed 3-times in wash buffer. An anti-mouse IgG HRP-conjugated antibody (P0260 by Dako, this reagent was used according to the manufacturer's instructions) was used to detect binding of mouse antibodies, such as 10B3. An anti-human kappa light chain HRP-conjugated antibody (A7164 by Sigma Aldridge, this reagent was used according to the manufacturer's instructions) was used to detect binding of humanized or chimeric antibodies, such as 10B3 chimera or H0L0. The plate was then washed 3-times in wash buffer and developed with an OPD substrate (from Sigma, used according to the manufacturer's instructions) and read at 490 nm on a plate reader.
Background: ELISA stands for enzyme-linked immunosorbent assay.

The target is the same in experiment [3]. Description: cell-based or functional assay.
The target is the same in experiment [4]. Description: cell-based or functional assay. This is another data set of the same source.
For experiment [5] the target is unchanged. Description: BIAcore, low density myostatin surface, methods as in 4.3. On the technique in general: In SPR one partner is held on a chip, and binding of the other changes the refractive index at the surface.
Experiment [6] has the same target. Briefly: BIAcore, medium density myostatin surface, antibody analyte, 1:1 model (poor fits). On the procedure:
as §1

The target is the same in experiment [7]. Description: BIAcore, high density myostatin surface, antibody analyte, 1:1 model (poor fits). The method, then: as §1
The target is the same in experiment [8]. Description: myostatin binding ELISA with purified antibody, 10 ng/well recombinant myostatin coated, anti-human kappa HRP, A490 (Examples 4.1, 4.2). On the procedure:
as §2

Experiment [9] has the same target. Briefly: myostatin capture ELISA: plate coated with polyclonal anti-myostatin AF788, myostatin 1 µg/ml captured, purified antibody titrated, anti-human kappa HRP, A490 (Example 6.7). On the procedure: A 96-well ELISA plate was coated at 4° C. overnight with 2.5 μg/ml polyclonal Antibody to Myostatin (R&D Systems AF788). This plate was then washed 3-times in wash buffer (PBS, 0.1% Tween-20) and blocked for 1 hour at room temperature with block solution (PBS, 0.1% Tween-20+1% bovine serum albumin [BSA]). Then, myostatin was added at 1 μg/ml in block buffer during 1 hour followed by 3-times in wash buffer. Antibodies were then titrated out to a suitable concentration range (approximately 10 to 0.01 μg/ml), added to the plate and incubated for 1 hour at room temperature. The plate was then washed 3-times in wash buffer. An anti-human kappa light chain HRP-conjugated antibody (Sigma A7164, used according to the manufacturer's instructions) was used to detect binding of humanized or chimeric antibodies, such as 10B3 chimera (HcLc) or H0L0. The plate was then washed 3-times in wash buffer and developed with an OPD substrate (according to the manufacturer's instructions) and read at 490 nm on a plate reader.
The experiment is illustrated in FIG. 21 where H2L2-C91S, H0L0, HcLc (10B3 chimera) and a negative control monoclonal antibody were used as control antibodies. All eleven CDRH3 variant antibodies bound to recombinant myostatin in this ELISA. […]

Experiment [10] has the same target. Description: myostatin binding ELISA, 10 ng/well recombinant myostatin coated, CHOK1 supernatants, anti-human kappa HRP, A490 (Examples 5.1, 4.2).
Experiment [11] shares this target. Description: myostatin binding ELISA, CHOK1 supernatants. The method, then:
as §2, with “An anti-human kappa light chain HRP-conjugated antibody (A7164 by Sigma Aldridge, this reagent was used according to the manufacturer's instructions) was used to detect binding of humanized or chimeric antibodies, such as 10B3 chimera or H0L0.” left out
The plasmids for each antibody were transfected into CHOK1 cells in duplicate and in two separate experiments. Antibodies produced in the CHOK1 cell supernatant were analysed for activity in the myostatin binding ELISA. […]

B1: H0L0 (antibody, human IgG1, kappa)
heavy: not shown
light: DIQMTQSPSSLSASVGDRVTITCKASQDINSYLSWFQQKPGKAPKSLIYRANRLVDGVPSKFSGSGSGTDFTLTISSLQPEDFATYYCLQCDEFPLTFGQGTKLEIKRTVAAPSVFIFPPSDEQLKSGTASVVCLLNNFYPREAKVQWKVDNALQSGNSQESVTEQDSKDSTYSLSSTLTLSKADYEKHKVYACEVTHQGLSSPVTKSFNRGEC
notes: Humanised, human IgG1 wild type/kappa
Usually Kd stands for the free concentration of one partner at which half of the binding sites on the other are occupied at equilibrium, for simple one-to-one binding. Usually koff stands for a measure of how fast the partners let go of each other. As a reminder, the kon is a measure of how fast the partners come together. One may read the EC50 (read off the curve) as the concentration at which the effect is half-maximal. For B1, the Kd came out at 8.26 nM in [1], 22.7 nM in experiment [5], 3.61 nM in [6] and 2.31 nM in experiment [7]. Also, the koff turned out to be 0.00662 s⁻¹ in [1], 0.00093 s⁻¹ in [6] and 0.000338 s⁻¹ in experiment [7]. The kon in experiment [1] was found to be 801000 M⁻¹ s⁻¹; in [6], 258000 M⁻¹ s⁻¹; in experiment [7] it was 146000 M⁻¹ s⁻¹. Moreover, the “EC50 (read off the curve)” value is around 0.3 µg/mL in experiment [2] and around 0.1 µg/mL in experiment [8]. For the same molecule, the “Mean IC50, A204 in vitro activity assay” value came to 10.1 nM in experiment [3] and 10.2 nM in experiment [4].

B2: H2L2-C91S_F100G_N (antibody, human IgG1, kappa, V domains shown)
VH: QVQLVQSGAEVKKPGASVKVSCKASGYSFTGYFMHWVRQAPGQGLEWMGNIYPYNGVSNYNQRFKARVTMTTDTSTSTAYMELRSLRSDDTAVYYCARRYYYGTGPADWYNDVWGQGTLVTVSS
VL: DIQMTQSPSSLSASVGDRVTITCKASQDINSYLSWFQQKPGKAPKSLIYRANRLVDGVPSKFSGSGSGTDYTLTISSLQPEDFATYYCLQSDEFPLTFGQGTKLEIKR
Take B2: the binding result in [9] is “binds”.

B3: H2L2 N54D (H2L2-N54D) (antibody, human IgG1, kappa, V domains shown)
VH: QVQLVQSGAEVKKPGASVKVSCKASGYSFTGYFMHWVRQAPGQGLEWMGNIYPYDGVSNYNQRFKARVTMTTDTSTSTAYMELRSLRSDDTAVYYCARRYYYGTGPADWYFDVWGQGTLVTVSS
VL: DIQMTQSPSSLSASVGDRVTITCKASQDINSYLSWFQQKPGKAPKSLIYRANRLVDGVPSKFSGSGSGTDYTLTISSLQPEDFATYYCLQCDEFPLTFGQGTKLEIKR
Turning to B3, the binding result in experiment [10] is given as “no binding (tested: about 33 nM)”.

B4: H2L2-C91S_W100E_F (antibody, human IgG1, kappa, V domains shown)
VH: QVQLVQSGAEVKKPGASVKVSCKASGYSFTGYFMHWVRQAPGQGLEWMGNIYPYNGVSNYNQRFKARVTMTTDTSTSTAYMELRSLRSDDTAVYYCARRYYYGTGPADFYFDVWGQGTLVTVSS
VL: DIQMTQSPSSLSASVGDRVTITCKASQDINSYLSWFQQKPGKAPKSLIYRANRLVDGVPSKFSGSGSGTDYTLTISSLQPEDFATYYCLQSDEFPLTFGQGTKLEIKR
For the molecule B4, the binding result in [9] is “binds”.

B5: H2L2 N54D & C91S (H2L2-N54D-C91S) (antibody, human IgG1, kappa, V domains shown)
VH: QVQLVQSGAEVKKPGASVKVSCKASGYSFTGYFMHWVRQAPGQGLEWMGNIYPYDGVSNYNQRFKARVTMTTDTSTSTAYMELRSLRSDDTAVYYCARRYYYGTGPADWYFDVWGQGTLVTVSS
VL: DIQMTQSPSSLSASVGDRVTITCKASQDINSYLSWFQQKPGKAPKSLIYRANRLVDGVPSKFSGSGSGTDYTLTISSLQPEDFATYYCLQSDEFPLTFGQGTKLEIKR
Turning to B5, the binding result in experiment [10] is reported as “no binding”.

B6: 10B3 chimera N54D (HCLC-N54D) (antibody, human IgG1, kappa, V domains shown)
VH: EVQLQQSGPELVKPGASVKISCKASGYSFTGYFMHWVKQSHGNILDWIGNIYPYDGVSNYNQRFKAKATLTVDKSSSTAYMELRSLTSEDSAVYYCARRYYYGTGPADWYFDVWGTGTLVTVSS
VL: DIKMTQSPSSMYASLRERVTITCKASQDINSYLSWFQQKPGKSPKTLIYRANRLVDGVPSRFSGSGSGQDYSLTISSLEYEDMGIYYCLQCDEFPLTFGAGTKLELKR
For the molecule B6, the binding result in experiment [11] is listed as “no binding”.

B7: 10B3 chimera N54D & C91S (HCLC-N54D-C91S) (antibody, human IgG1, kappa, V domains shown)
VH: EVQLQQSGPELVKPGASVKISCKASGYSFTGYFMHWVKQSHGNILDWIGNIYPYDGVSNYNQRFKAKATLTVDKSSSTAYMELRSLTSEDSAVYYCARRYYYGTGPADWYFDVWGTGTLVTVSS
VL: DIKMTQSPSSMYASLRERVTITCKASQDINSYLSWFQQKPGKSPKTLIYRANRLVDGVPSRFSGSGSGQDYSLTISSLEYEDMGIYYCLQSDEFPLTFGAGTKLELKR
As to B7, in [11], the binding result is reported as “no binding”.
